Results published in article PMC8266594 (Nucleic Acids Research, 2021).

Target: the molecule itself
Assay: SAXS

Protein	stoichiometry N
RnlAΔ1–91 (TBP2-HEPN) truncated RnlA, N-terminally His-tagged (domain or fragment, Escherichia coli, UniProt P52129 92-357, looked up) INPAEFEQVNMVLQGFVETSVLPVLELSADESHIEFREHSRNAHTVVWKIISTSYQDELTVSLHITTGKLQIQGRPLSCYRVFTFNLAALLDLQGLEKVLIRQEDGKANIVQQEVARTYLQTVMADAYPHLHVTAEKLLVSGLCVKLAAPDLPDYCMLLYPELRTIEGVLKSKMSGLGMPVQQPAGFGTYFDKPAAHYILKPQFAATLRPEQINIISTAYTFFNVERHSLFHMETVVDASRMISDMARLMGKATRAWGIIKDLYIV	2
His-RnlA (wild-type RnlA toxin, N-terminally His-tagged) (enzyme) MTIRSYKNLNLVRANIETESRQFIENKNYSIQSIGPMPGSRAGLRVVFTRPGVNLATVDIFYNGDGSTTIQYLTGANRSLGQELADHLFETINPAEFEQVNMVLQGFVETSVLPVLELSADESHIEFREHSRNAHTVVWKIISTSYQDELTVSLHITTGKLQIQGRPLSCYRVFTFNLAALLDLQGLEKVLIRQEDGKANIVQQEVARTYLQTVMADAYPHLHVTAEKLLVSGLCVKLAAPDLPDYCMLLYPELRTIEGVLKSKMSGLGMPVQQPAGFGTYFDKPAAHYILKPQFAATLRPEQINIISTAYTFFNVERHSLFHMETVVDASRMISDMARLMGKATRAWGIIKDLYIV	2
D245R RnlA, N-terminally His-tagged (enzyme, Escherichia coli, UniProt P52129 1-357, looked up) MTIRSYKNLNLVRANIETESRQFIENKNYSIQSIGPMPGSRAGLRVVFTRPGVNLATVDIFYNGDGSTTIQYLTGANRSLGQELADHLFETINPAEFEQVNMVLQGFVETSVLPVLELSADESHIEFREHSRNAHTVVWKIISTSYQDELTVSLHITTGKLQIQGRPLSCYRVFTFNLAALLDLQGLEKVLIRQEDGKANIVQQEVARTYLQTVMADAYPHLHVTAEKLLVSGLCVKLAAPDLPRYCMLLYPELRTIEGVLKSKMSGLGMPVQQPAGFGTYFDKPAAHYILKPQFAATLRPEQINIISTAYTFFNVERHSLFHMETVVDASRMISDMARLMGKATRAWGIIKDLYIV	2
R255A RnlA, N-terminally His-tagged (enzyme, Escherichia coli, UniProt P52129 1-357, looked up) MTIRSYKNLNLVRANIETESRQFIENKNYSIQSIGPMPGSRAGLRVVFTRPGVNLATVDIFYNGDGSTTIQYLTGANRSLGQELADHLFETINPAEFEQVNMVLQGFVETSVLPVLELSADESHIEFREHSRNAHTVVWKIISTSYQDELTVSLHITTGKLQIQGRPLSCYRVFTFNLAALLDLQGLEKVLIRQEDGKANIVQQEVARTYLQTVMADAYPHLHVTAEKLLVSGLCVKLAAPDLPDYCMLLYPELATIEGVLKSKMSGLGMPVQQPAGFGTYFDKPAAHYILKPQFAATLRPEQINIISTAYTFFNVERHSLFHMETVVDASRMISDMARLMGKATRAWGIIKDLYIV	2
